“Also recorded” adds a separate entry of the source.
Experiments:
[1] = tested on: 125I-labeled C4
[2] = tested on: Eu-labelled C4-peptide
[3] = tested on: GST-A-1 (peptide A-1 expressed as glutathione S-transferase fusion protein)
[4] = tested on: GST-B-2 (peptide B-2 expressed as glutathione S-transferase fusion protein)
[5] = tested on: GST-C-4 (peptide C-4 expressed as glutathione S-transferase fusion protein)
[6] = tested on: SKSKSKS-aca-CVAYCIEHHCWTC (SKSKSKS-tailed peptide C4)
Target sequence (chain, as listed by the source): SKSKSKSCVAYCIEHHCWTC

[7] = tested on: Tc99m-labeled C4
[8] = tested on: chemically synthesized peptide A-1 (A-1-1, A-1 parent)
[9] = tested on: chemically synthesized peptide C-4 without GA flanks (C-4-1, C4 parent)
[10] = target: insulin like growth factor-binding protein 3 (IGF-BP-3) (UniProt P17936)
[11] = tested on: mercaptoethanol-reduced C4

insulin like growth factor-binding protein 3 (IGF-BP-3), sequence (P17936 28-291): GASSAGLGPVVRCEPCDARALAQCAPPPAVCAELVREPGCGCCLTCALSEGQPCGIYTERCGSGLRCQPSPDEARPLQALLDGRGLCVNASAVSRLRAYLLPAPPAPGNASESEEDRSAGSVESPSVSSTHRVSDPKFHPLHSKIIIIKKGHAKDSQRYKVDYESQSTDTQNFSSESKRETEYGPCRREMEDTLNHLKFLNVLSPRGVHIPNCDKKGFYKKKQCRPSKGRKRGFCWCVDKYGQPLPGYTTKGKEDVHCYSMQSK

Prostate specific antigen (PSA), purified from human seminal fluid
PSA enzyme activity (A405) on substrate S-2586; PSA 0.33 µM, peptide in 30-fold molar excess [1]: 125-iodinated C4: rises to about 0.048 at 58 min, little above PSA alone (about 0.040) and far under C4 (about 0.070) | PSA enzyme activity (A405) on substrate S-2586; PSA 0.33 µM with 100 µL of C18 fractions of the Eu-labelling mixture of C4 [2]: at 60 min fraction 27 reaches about 0.043, fraction 26 about 0.037, fraction 28 about 0.024; all other fractions and the PSA control lie together at about 0.006-0.011 | PSA activity against the chromogenic substrate S-2586 (A405) [3]: The enzyme activity of PSA was significantly enhanced by the GST-peptides | PSA activity against the chromogenic substrate S-2586 (A405) [4]: The enzyme activity of PSA was significantly enhanced by the GST-peptides | PSA activity against the chromogenic substrate S-2586 (A405) [5]: stimulating PSA activity against the chromogenic substrate about 5-fold | PSA enzyme activity (A405 nm) on substrate S-2586; PSA 0.33 µM, peptide in 30-fold molar excess [6]: SKSKSKS-tailed C4: rises linearly to about 0.060 at 65 min, just under non-tailed C4; PSA control about 0.021 | PSA enzyme activity (A405) on substrate S-2586; PSA 0.33 µM, peptide in 30-fold molar excess [7]: C4-technetium-conjugate: rises to about 0.12 at 95 min, between unlabelled C4 (about 0.16) and the PSA control (about 0.095); wide error bars | cleavage of IGF-BP-3 by PSA (IGF-BP-3 IFMA), 100-fold molar excess of peptide [8]: about 70% cleavage of IGF-BP-3 | PSA enzyme activity (A405) on substrate S-2586; PSA 0.33 µM [9]: Unlabelled C4: rises to about 0.16 at 95 min; PSA control about 0.095; also recorded: C4: rises to about 0.070 at 58 min; PSA alone about 0.040 | PSA enzyme activity (A405 nm) on substrate S-2586; PSA 0.33 µM, peptide in 30-fold molar excess [9]: non-tailed C4: rises linearly to about 0.063 at 65 min; PSA control about 0.021 | cleavage of IGF-BP-3 by PSA (IGF-BP-3 IFMA), 100-fold molar excess of peptide [9]: about 70% cleavage of IGF-BP-3 | decrease in IGF-BP-3 immunoreactivity (IFMA) after 16 h at 37 °C [10]: PSA alone slowly cleaved IGF-BP-3 as revealed by an 30% decrease in immunoreactivity | PSA enzyme activity (A405) on substrate S-2586; PSA 0.33 µM [11]: mercaptoethanol-reduced C4: curve lies on that of the PSA control over the whole time, about 0.095 at 95 min: no enhancement
